# Measured values as given in patent publication US10400030B2.
# B1: clone 2.2 VH (VHH)
# VHH: QVQLVQSGAEVKKPGASVKVSCKASGYPFTSYDINWVRQATGRSLEWMGWMNPTNGNTVYAQKFQDRVTMTRNTSISTAYMELSSLRSEDTAVYFCARGRRDDWKNNYWGQGTLVTVSS
# Target: IL-17RA Fc fusion protein (human) (UniProt Q96F46)
# Test: BIAcore T200, IL-17RA Fc fusion captured on protein G surface, single-cycle kinetics
binder,measurement,value
B1,fold improved affinity against clone 2.1,5 fold
